Laboratory results reported in article PMC7817693.
Values joined by “and” are separate entries in the source; they are usually repeats but may differ in a detail not shown here. Identical values can stand only once.

biological target: p53 (94-393) WT, thermostable deltaN (Homo sapiens) (UniProt P04637); test: fluorescence polarization; settings: FP at 25 °C, 2.5 nM FAM-dsDNA, 200 or 275 mM NaCl, 20 mM bis-tris propane pH 6.8, 5% glycerol, 0.1 mg/ml BSA, 0.5 mM TCEP, 10 min; mean of n = 2
Sequence (P04637 94-393, stated change not applied): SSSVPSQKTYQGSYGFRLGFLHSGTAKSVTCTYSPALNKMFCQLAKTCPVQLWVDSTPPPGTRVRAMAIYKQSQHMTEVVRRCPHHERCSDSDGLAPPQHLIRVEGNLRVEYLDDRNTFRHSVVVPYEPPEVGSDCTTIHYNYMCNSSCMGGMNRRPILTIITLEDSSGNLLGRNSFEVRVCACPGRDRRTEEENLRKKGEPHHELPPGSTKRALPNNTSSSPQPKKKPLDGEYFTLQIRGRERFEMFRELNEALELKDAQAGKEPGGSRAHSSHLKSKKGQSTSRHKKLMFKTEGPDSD

| Sequence | Kd |
| --- | --- |
| ATGATGATAGACAAGTCAGGACTTAACTATATGATG (double strand) [MDM2 RE] | 20 nM and 97 nM |
| ATGATGATGGGCAGGTCCGGACTTGTCGATATGATG (double strand) [BAX_8/13] | 8 nM and 40 nM |
| ATGATGATGAACATGCCCCAGCATGTTGATATGATG (double strand) [p21_8/13] | 33 nM and 99 nM |
| ATGATGATAGGCATGTCCCAACATGCCCATATGATG (double strand) [APBB2 RE] | 10 nM and 40 nM |
| ATGATGATGGGCATGTCTGGGCATGTCTATATGATG (double strand) [3Q05 pdb RE] | 6 nM |
| ATGATGATGAACATGTCCCAACATGTTGATATGATG (double strand) [p21 RE] | 26 nM and 23 nM |
| ATGATGATGAGCGTGTCCGGGCAGGTCGATATGATG (double strand) [NOXA RE] | 45 nM and 446 nM |
| ATGATGATGAACGTGTCCGGACAGGTCGATATGATG (double strand) [NOXA_3/13] | 23 nM and 60 nM |

same assay, conditions: inosine (written as G): strand 1 nt 21 (RE position 13); strand 2 nt 21 (opposite RE position 8); FP at 25 °C, 2.5 nM FAM-dsDNA, 200 or 275 mM NaCl, 20 mM bis-tris propane pH 6.8, 5% glycerol, 0.1 mg/ml BSA, 0.5 mM TCEP, 10 min; mean of n = 2

| Sequence | Kd |
| --- | --- |
| ATGATGATGGGCAGGCCCGGGCTTGTCGATATGATG (double strand) [BAX_8/13 I/C] | 9 nM and 83 nM |

same assay, conditions: inosine (written as G): strand 2 nt 21 and 11 (opposite RE positions 8 and 18); supplement also prints I at strand 1 nt 21 (RE position 13), Table 1 prints G there; FP at 25 °C, 2.5 nM FAM-dsDNA, 200 or 275 mM NaCl, 20 mM bis-tris propane pH 6.8, 5% glycerol, 0.1 mg/ml BSA, 0.5 mM TCEP, 10 min; mean of n = 2

| Sequence | Kd |
| --- | --- |
| ATGATGATAGGCATGCCTAGGCATGCCTATATGATG (double strand) [6FJ5_8/18 I/C] | 8 nM and 58 nM |
